Reference: patent US20140087995A1 (published 2014)
Numbered stars: 1 amine (or outer) side, 2 acyl side, 3 side chain; on linkers, the order of the positions; unused ones are H or OH. Bridge positions count the residues as written; N and C are the ends. Side chains are listed from the residue outwards. Ends that are not written are not given here. * marks the point of attachment. C20 diacid = O=C(O)CCCCCCCCCCCCCCCCCCC(=O)*; γGlu = O=C(O)[C@H](CCC(=O)[*:2])N[*:1]; AEEA = NCCOCCOCC(=O)O

B1: N^ε1-[2-[2-[2-[[(4S)-4-carboxy-4-(19-carboxynonadecanoylamino)butanoyl]amino]ethoxy]ethoxy]acetyl]-[Arg17,Pro21,Pro27,Glu35]-h-amylin (peptide)
peptide: K([AEEA-γGlu-C20 diacid])CNTATCATQRLANFLRHSSPNFGAIPSSTNVGSETY-NH2
modifications: disulfide 2-7; N-terminus assumed
SMILES: CC[C@H](C)[C@H](NC(=O)[C@H](C)NC(=O)CNC(=O)[C@H](Cc1ccccc1)NC(=O)[C@H](CC(N)=O)NC(=O)[C@@H]1CCCN1C(=O)[C@H](CO)NC(=O)[C@H](CO)NC(=O)[C@H](Cc1c[nH]cn1)NC(=O)[C@H](CCCNC(=N)N)NC(=O)[C@H](CC(C)C)NC(=O)[C@H](Cc1ccccc1)NC(=O)[C@H](CC(N)=O)NC(=O)[C@H](C)NC(=O)[C@H](CC(C)C)NC(=O)[C@H](CCCNC(=N)N)NC(=O)[C@H](CCC(N)=O)NC(=O)[C@@H](NC(=O)[C@H](C)NC(=O)[C@@H]1CSSC[C@H](NC(=O)[C@@H](N)CCCCNC(=O)COCCOCCNC(=O)CC[C@H](NC(=O)CCCCCCCCCCCCCCCCCCC(=O)O)C(=O)O)C(=O)N[C@@H](CC(N)=O)C(=O)N[C@@H]([C@@H](C)O)C(=O)N[C@@H](C)C(=O)N[C@@H]([C@@H](C)O)C(=O)N1)[C@@H](C)O)C(=O)N1CCC[C@H]1C(=O)N[C@@H](CO)C(=O)N[C@@H](CO)C(=O)N[C@H](C(=O)N[C@@H](CC(N)=O)C(=O)N[C@H](C(=O)NCC(=O)N[C@@H](CO)C(=O)N[C@@H](CCC(=O)O)C(=O)N[C@H](C(=O)N[C@@H](Cc1ccc(O)cc1)C(N)=O)[C@@H](C)O)C(C)C)[C@@H](C)O
notes: Acylated analogue of human amylin; also called compound 26
B2: N^ε1-[(4S)-4-carboxy-4-(19-carboxynonadecanoylamino)butanoyl]-[Arg17,Pro21,Pro27,Glu35]-h-amylin (peptide)
peptide: K([γGlu-C20 diacid])CNTATCATQRLANFLRHSSPNFGAIPSSTNVGSETY-NH2
modifications: disulfide 2-7; N-terminus assumed
SMILES: CC[C@H](C)[C@H](NC(=O)[C@H](C)NC(=O)CNC(=O)[C@H](Cc1ccccc1)NC(=O)[C@H](CC(N)=O)NC(=O)[C@@H]1CCCN1C(=O)[C@H](CO)NC(=O)[C@H](CO)NC(=O)[C@H](Cc1c[nH]cn1)NC(=O)[C@H](CCCNC(=N)N)NC(=O)[C@H](CC(C)C)NC(=O)[C@H](Cc1ccccc1)NC(=O)[C@H](CC(N)=O)NC(=O)[C@H](C)NC(=O)[C@H](CC(C)C)NC(=O)[C@H](CCCNC(=N)N)NC(=O)[C@H](CCC(N)=O)NC(=O)[C@@H](NC(=O)[C@H](C)NC(=O)[C@@H]1CSSC[C@H](NC(=O)[C@@H](N)CCCCNC(=O)CC[C@H](NC(=O)CCCCCCCCCCCCCCCCCCC(=O)O)C(=O)O)C(=O)N[C@@H](CC(N)=O)C(=O)N[C@@H]([C@@H](C)O)C(=O)N[C@@H](C)C(=O)N[C@@H]([C@@H](C)O)C(=O)N1)[C@@H](C)O)C(=O)N1CCC[C@H]1C(=O)N[C@@H](CO)C(=O)N[C@@H](CO)C(=O)N[C@H](C(=O)N[C@@H](CC(N)=O)C(=O)N[C@H](C(=O)NCC(=O)N[C@@H](CO)C(=O)N[C@@H](CCC(=O)O)C(=O)N[C@H](C(=O)N[C@@H](Cc1ccc(O)cc1)C(N)=O)[C@@H](C)O)C(C)C)[C@@H](C)O
notes: Acylated analogue of human amylin; also called compound 27
B3: N^ε1-[(4S)-4-carboxy-4-(19-carboxynonadecanoylamino)butanoyl]-[Arg17,Pro21,Pro27,Lys35]-h-amylin (peptide)
peptide: K([γGlu-C20 diacid])CNTATCATQRLANFLRHSSPNFGAIPSSTNVGSKTY-NH2
modifications: disulfide 2-7; N-terminus assumed
SMILES: CC[C@H](C)[C@H](NC(=O)[C@H](C)NC(=O)CNC(=O)[C@H](Cc1ccccc1)NC(=O)[C@H](CC(N)=O)NC(=O)[C@@H]1CCCN1C(=O)[C@H](CO)NC(=O)[C@H](CO)NC(=O)[C@H](Cc1c[nH]cn1)NC(=O)[C@H](CCCNC(=N)N)NC(=O)[C@H](CC(C)C)NC(=O)[C@H](Cc1ccccc1)NC(=O)[C@H](CC(N)=O)NC(=O)[C@H](C)NC(=O)[C@H](CC(C)C)NC(=O)[C@H](CCCNC(=N)N)NC(=O)[C@H](CCC(N)=O)NC(=O)[C@@H](NC(=O)[C@H](C)NC(=O)[C@@H]1CSSC[C@H](NC(=O)[C@@H](N)CCCCNC(=O)CC[C@H](NC(=O)CCCCCCCCCCCCCCCCCCC(=O)O)C(=O)O)C(=O)N[C@@H](CC(N)=O)C(=O)N[C@@H]([C@@H](C)O)C(=O)N[C@@H](C)C(=O)N[C@@H]([C@@H](C)O)C(=O)N1)[C@@H](C)O)C(=O)N1CCC[C@H]1C(=O)N[C@@H](CO)C(=O)N[C@@H](CO)C(=O)N[C@H](C(=O)N[C@@H](CC(N)=O)C(=O)N[C@H](C(=O)NCC(=O)N[C@@H](CO)C(=O)N[C@@H](CCCCN)C(=O)N[C@H](C(=O)N[C@@H](Cc1ccc(O)cc1)C(N)=O)[C@@H](C)O)C(C)C)[C@@H](C)O
notes: Acylated analogue of human amylin; also called compound 35
B4: N^ε1-[(4S)-4-carboxy-4-[[(4S)-4-carboxy-4-(19-carboxynonadecanoylamino)butanoyl]amino]butanoyl]-[Asp14,Arg17,Pro21,Pro26,Asp35]-h-amylin (peptide)
peptide: K([γGlu-γGlu-C20 diacid])CNTATCATQRLADFLRHSSPNFGAPLSSTNVGSDTY-NH2
modifications: disulfide 2-7; N-terminus assumed
SMILES: CC(C)C[C@H](NC(=O)[C@H](CCCNC(=N)N)NC(=O)[C@H](CCC(N)=O)NC(=O)[C@@H](NC(=O)[C@H](C)NC(=O)[C@@H]1CSSC[C@H](NC(=O)[C@@H](N)CCCCNC(=O)CC[C@H](NC(=O)CC[C@H](NC(=O)CCCCCCCCCCCCCCCCCCC(=O)O)C(=O)O)C(=O)O)C(=O)N[C@@H](CC(N)=O)C(=O)N[C@@H]([C@@H](C)O)C(=O)N[C@@H](C)C(=O)N[C@@H]([C@@H](C)O)C(=O)N1)[C@@H](C)O)C(=O)N[C@@H](C)C(=O)N[C@@H](CC(=O)O)C(=O)N[C@@H](Cc1ccccc1)C(=O)N[C@@H](CC(C)C)C(=O)N[C@@H](CCCNC(=N)N)C(=O)N[C@@H](Cc1c[nH]cn1)C(=O)N[C@@H](CO)C(=O)N[C@@H](CO)C(=O)N1CCC[C@H]1C(=O)N[C@@H](CC(N)=O)C(=O)N[C@@H](Cc1ccccc1)C(=O)NCC(=O)N[C@@H](C)C(=O)N1CCC[C@H]1C(=O)N[C@@H](CC(C)C)C(=O)N[C@@H](CO)C(=O)N[C@@H](CO)C(=O)N[C@H](C(=O)N[C@@H](CC(N)=O)C(=O)N[C@H](C(=O)NCC(=O)N[C@@H](CO)C(=O)N[C@@H](CC(=O)O)C(=O)N[C@H](C(=O)N[C@@H](Cc1ccc(O)cc1)C(N)=O)[C@@H](C)O)C(C)C)[C@@H](C)O
notes: Acylated analogue of human amylin; also called compound 1

How the values were obtained:
rat calcitonin receptor [1] = molecular target: T1, rat calcitonin receptor (rat, UniProt P32214 25-516); experiment: SPA competition vs 125I-calcitonin, membranes with rat CTR (Assay VIII)
T1 construct: whole, on cells; Cell membranes of transiently transfected BHK tk'ts 13 cells (Assay VIII); also called rCTR; rCT
T1 sequence (looked up): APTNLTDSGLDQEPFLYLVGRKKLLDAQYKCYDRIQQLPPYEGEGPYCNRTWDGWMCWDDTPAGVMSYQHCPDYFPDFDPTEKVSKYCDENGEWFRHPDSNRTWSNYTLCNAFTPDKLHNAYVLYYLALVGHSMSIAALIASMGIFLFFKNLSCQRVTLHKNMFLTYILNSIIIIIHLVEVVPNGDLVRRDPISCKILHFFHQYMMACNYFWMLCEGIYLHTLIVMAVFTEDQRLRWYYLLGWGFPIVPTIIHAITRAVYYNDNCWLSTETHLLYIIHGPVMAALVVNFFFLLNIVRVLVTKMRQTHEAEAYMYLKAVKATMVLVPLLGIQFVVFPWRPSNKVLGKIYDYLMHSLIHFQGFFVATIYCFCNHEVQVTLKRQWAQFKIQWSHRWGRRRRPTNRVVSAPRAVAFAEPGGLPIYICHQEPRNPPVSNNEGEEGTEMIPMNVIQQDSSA

rat calcitonin receptor [2] = molecular target: T1, rat calcitonin receptor; experiment: ratio IC50 rat calcitonin receptor / IC50 rat amylin receptor
[3] = molecular target: T2, human calcitonin receptor (human, UniProt P30988 25-474); experiment: ratio IC50 human calcitonin receptor / IC50 human amylin receptor
T2 construct: whole, on cells; Cell membranes of a stably transfected BHK cell line (Assay VII); also called hCTR; hCT
T2 sequence (looked up): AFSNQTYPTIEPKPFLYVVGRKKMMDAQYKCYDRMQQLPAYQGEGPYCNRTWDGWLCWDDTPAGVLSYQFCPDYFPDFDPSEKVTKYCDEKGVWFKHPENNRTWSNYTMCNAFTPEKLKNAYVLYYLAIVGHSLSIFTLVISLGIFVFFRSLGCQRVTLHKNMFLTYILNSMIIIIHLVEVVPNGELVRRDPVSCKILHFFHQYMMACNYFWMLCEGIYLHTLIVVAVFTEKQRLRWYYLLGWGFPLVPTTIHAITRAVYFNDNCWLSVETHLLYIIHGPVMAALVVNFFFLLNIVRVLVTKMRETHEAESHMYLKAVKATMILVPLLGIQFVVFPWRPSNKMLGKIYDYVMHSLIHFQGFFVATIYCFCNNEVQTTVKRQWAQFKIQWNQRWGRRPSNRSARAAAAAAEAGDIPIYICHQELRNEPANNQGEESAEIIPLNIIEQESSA
Method: The resulting pellet was resuspended, homogenized and centrifuged (20.000 rpm, 15 min) in a buffer containing 20 mM Na-HEPES and 0.1 mM EDTA (pH 7.4, buffer 2). The resulting pellet was resuspended in buffer 2 and protein concentration was measured (BCA protein Assay, Pierce). The homogenate was kept cold during the whole procedure. The membranes were kept at −80° C. until use. The assay was performed in a 384 well Optiplate (PerkinElmer) in a total volume of 40 ul. Membranes were mixed with SPA beads. Final concentration of membranes 35 ng/μL final and SPA beads was 0.05 mg/well. Test-compounds were dissolved in DMSO and further diluted in assay buffer (50 mM Hepes, pH 7.4, 1 mM CaCl2, 5 mM MgCl₂, 0.1% OA and 0.02% Tween20). […] The final mixture was incubated with shaking at 400 rpm for 120 min at 25° C. prior to centrifugation (1500 rpm, 10 min). Samples were analyzed on TopCounter™ (Packard). The IC₅₀ was calculated using (one site binding competition analysis) GraphPad Prism5 as a measure of receptor affinity.
Membranes were prepared in the following way; the cells were rinsed with PBS and incubated with Versene for approximately 5 min before harvesting. The cells were flushed with PBS and the cell-suspension was centrifuged for 5 min at 1000 rpm. Cells were homogenized (Ultrathurrax) in a buffer containing 20 mM Na-HEPES and 10 mM EDTA (pH 7.4) and centrifuged at 20.000 rpm for 15 min. The resulting pellet was resuspended, homogenized and centrifuged (20.000 rpm, 15 min) in a buffer containing 20 mM Na-HEPES and 0.1 mM EDTA (pH 7.4, buffer 2). The resulting pellet was resuspended in buffer 2 and protein concentration was measured (BCA protein Assay, Pierce). The homogenate was kept cold during the whole procedure. The membranes were kept at −80° C. until use. Assay was performed in a 384 well Optiplate (PerkinElmer) in a total volume of 40 ul. Membranes were mixed with SPA beads.

[4] = molecular target: T3, rat amylin receptor (rat calcitonin receptor + rat RAMP 3) (rat, UniProt P32214 25-516; Q9JJ73 23-147); experiment: SPA competition vs 125I-rat amylin, membranes with rat CTR + rat RAMP3 (Assay VI)
T3 construct: whole, on cells; Cell membranes of transiently transfected BHK tk'ts 13 cells (Assay VI); also called rAmylin-R; rat amylin 3(a) receptor
T3 sequence (looked up) 1: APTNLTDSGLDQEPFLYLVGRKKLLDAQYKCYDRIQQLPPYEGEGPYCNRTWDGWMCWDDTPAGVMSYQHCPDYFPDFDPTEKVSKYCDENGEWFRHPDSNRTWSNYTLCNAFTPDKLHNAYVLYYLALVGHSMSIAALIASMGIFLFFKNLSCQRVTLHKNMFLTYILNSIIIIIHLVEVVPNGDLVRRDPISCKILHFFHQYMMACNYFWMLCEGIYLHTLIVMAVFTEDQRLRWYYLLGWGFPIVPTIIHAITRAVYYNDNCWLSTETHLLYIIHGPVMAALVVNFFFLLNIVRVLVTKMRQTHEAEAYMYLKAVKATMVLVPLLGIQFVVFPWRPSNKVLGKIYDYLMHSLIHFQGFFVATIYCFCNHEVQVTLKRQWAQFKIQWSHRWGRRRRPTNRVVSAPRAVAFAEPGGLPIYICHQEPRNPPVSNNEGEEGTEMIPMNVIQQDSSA
T3 sequence (looked up) 2: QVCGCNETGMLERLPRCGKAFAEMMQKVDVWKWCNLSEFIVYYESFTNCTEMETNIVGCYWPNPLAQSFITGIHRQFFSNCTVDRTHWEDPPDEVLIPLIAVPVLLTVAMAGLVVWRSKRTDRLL

Binder | IC50 (rat calcitonin receptor [1]) | Ratio rCT/rAmylin binding (rat calcitonin receptor [2]) | Ratio hCT/hAmylin binding [3] | IC50 [4]
B1 | 152 nM | 309 | 47.5 | 0.491 nM
B2 | 90.2 nM | 147 | 41.3 | 0.614 nM
B3 | 61.7 nM | 65.1 | 50.3 | 0.948 nM
B4 | 135 nM | 104 | 27.6 | 1.3 nM
